What is called Ki is a measure of affinity in units of concentration, obtained from inhibition or displacement. Low readings indicate a stronger hold on the target, high ones a looser hold on the target.

Experiment [1] concerns the target T1, human Bfl-1 (residues 1-151) (human, UniProt Q16548 1-151).
T1 construct: range 1-151
T1 sequence (looked up): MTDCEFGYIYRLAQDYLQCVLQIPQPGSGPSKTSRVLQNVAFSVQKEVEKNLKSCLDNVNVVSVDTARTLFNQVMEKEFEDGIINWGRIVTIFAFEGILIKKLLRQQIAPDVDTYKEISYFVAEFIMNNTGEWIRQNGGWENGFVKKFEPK
As to the kind of experiment: competition FP vs fluoresceinated Bim BH3, solution.
Text: (§1) We used the cell-surface experiments to select six peptides, for which we determined solution Ki values using a competition fluorescence polarization (FP) assay (FIG. 3, panel d).

For experiment [2], the target named is T2, human Mcl-1 (residues 172-327) (human, UniProt Q07820 172-327).
T2 construct: range 172-327
T2 sequence (Q07820 172-327 limits assumed): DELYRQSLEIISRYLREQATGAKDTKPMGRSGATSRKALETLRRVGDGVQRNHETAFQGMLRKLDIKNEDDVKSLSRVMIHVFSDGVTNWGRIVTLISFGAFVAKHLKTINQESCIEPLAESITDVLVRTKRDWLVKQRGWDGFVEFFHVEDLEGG
Described as above.
Text: as §1

In experiment [3] the target is T1, human Bfl-1 (residues 1-151). Briefly: competition FP, solution.
Text: as §1
For experiment [4], the target named is T2, human Mcl-1 (residues 172-327). Briefly: competition FP, solution.
Text: as §1
Experiment [5] addresses T3, human Bcl-xL (residues 1-209) (human, UniProt Q07817 1-209).
T3 construct: range 1-209
Briefly: competition FP vs fluoresceinated Bim BH3, solution.
Text: as §1

Experiment [6] has as its target T3, human Bcl-xL (residues 1-209). Briefly: solution binding assays (competition FP).
Experiment [7] deals with T1, human Bfl-1 (residues 1-151). As to the kind of experiment: yeast surface display.
Experiment [8] has as its target T2, human Mcl-1 (residues 172-327). Briefly: yeast surface display.
Experiment [9] has as its target T3, human Bcl-xL (residues 1-209). As to the kind of experiment: yeast surface display.
Experiment [10] addresses T1, human Bfl-1 (residues 1-151). As to the kind of experiment: reported affinity; yeast cell-surface measurement presumed.
Experiment [11] has the same target. As to the kind of experiment: yeast display, sparse titration, apparent KD.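 Further: designs displayed on the yeast cell surface, binding of soluble target protein measured at four concentrations spanning nanomolar to micromolar, apparent KD estimated from this sparse titration.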
Experimental: We measured binding of the designs to 1, 10, 100 or 1000 nM of Bcl-xL, Mcl-1 and Bfl-1 using yeast cell-surface display.

T3 sequence (Q07817 1-209 limits assumed): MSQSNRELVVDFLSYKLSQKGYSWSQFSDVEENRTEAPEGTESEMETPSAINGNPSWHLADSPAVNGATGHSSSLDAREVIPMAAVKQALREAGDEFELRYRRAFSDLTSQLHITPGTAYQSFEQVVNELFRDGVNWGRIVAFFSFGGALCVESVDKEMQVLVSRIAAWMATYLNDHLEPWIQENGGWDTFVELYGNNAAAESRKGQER

B1: srt.MF06 (peptide)
peptide: Ac-RRVDEIAQILRRIGDNVTTYIER-NH2
notes: synthetic solution peptide; also called MF6
For B1, the Ki in [1] is 19 nM; in experiment [2], 5.7 nM. Further, the “fold tighter Ki than to Bcl-xL” value in experiment [3] and in experiment [4] was > 100 fold in each case.

For the molecule Ac-QRIIWIAAELRRAADELDKQIER-NH2 (synthetic solution peptide) [srt.XF02], the values for the Ki in [1] and in experiment [5] were 10 nM and 37 nM, respectively.

Consider Ac-QRIIWIAAELRRAADQLDAQIER-NH2 (synthetic solution peptide) [srt.XF03], for which the figures for the Ki in [1] and in experiment [5] were 22 nM and 120 nM, respectively.

B2: srt.MF02 (peptide)
peptide: Ac-RWIDQIAQFLRRIGDHIEKYIER-NH2
notes: synthetic solution peptide; also called MF2
Regarding B2, the Ki in experiment [1] was found to be 6.6 nM; in experiment [2], 9 nM; in experiment [5], 1000 nM. Also, the “fold tighter Ki than to Bcl-xL” value in [3] and in experiment [4] was > 100 fold throughout.

B3: srt.X7 (peptide)
peptide: Ac-QPLIWFGAQLRRGADEFAAQRER-NH2
notes: synthetic solution peptide; also called srt.X07
On to B3, for which the Ki in experiment [5] worked out at 3.7 nM. The “fold specificity for target over off-targets” value in [6] is > 1000 fold.

B4: srt.X1 (peptide)
peptide: Ac-QTLIWYGASLRRYADEFAKQRER-NH2
notes: synthetic solution peptide; also called srt.X01
B4 registered a Ki in experiment [5] of 1.32 nM. The “fold specificity for target over off-targets” value in experiment [6] is > 1000 fold.

Turning to GRRVDEIAQILRRIGDNINEYI [MF04], the binding result in experiment [7], in experiment [8] and in [9] was “binds” throughout.

Take GRRVDEIAQILRRIGDQIEEYI [MF07]: the binding result in [7], in experiment [8] and in [9] was “binds” throughout.

In the case of Ac-QWLRDVVAELARIADEFHAQYER-NH2 (synthetic solution peptide) [srt.MX05], the values for the Ki in [2] and in experiment [5] were 100 nM and 20 nM, respectively.

Consider GQRVVHIAAGLRRTGDQLEAYG [F4], for which the Kd was 14 nM in [10] and < 100 nM in experiment [11].

For the molecule GRRVVQIAAGLRRAGDQLEKYG [F10], the Kd in [10] was 3.2 nM; in [11] it was < 100 nM.

As for Ac-QWLRWVIAELIRIADEFHAQYER-NH2 (synthetic solution peptide) [srt.MX01], the Ki was determined as 11 nM in [2] and 21 nM in [5].

The values above are taken from patent US20200262914A1 (MIT, published 2020).
